Measurements published in article PMC4455164, “Facilitated Tau Degradation by USP14 Aptamers via Enhanced Proteasome Activity”.

Biological target: USP14 (GST-USP14) (UniProt P54578 1-494)
Assay: GST pull-down with RT-PCR; 2 pmol GST-protein on GST sepharose 4B resin + 20 pmol RNA; pull-down buffer not restated; SELEX binding buffer 30 mM Tris-HCl pH 7.5, 150 mM NaCl, 1.5 mM MgCl2, 2 mM DTT, 1% BSA, RT
Conditions: protein: recombinant; tags: N-terminal GST (pGEX-2T)

Chain of USP14 (GST-USP14) (P54578 whole entry): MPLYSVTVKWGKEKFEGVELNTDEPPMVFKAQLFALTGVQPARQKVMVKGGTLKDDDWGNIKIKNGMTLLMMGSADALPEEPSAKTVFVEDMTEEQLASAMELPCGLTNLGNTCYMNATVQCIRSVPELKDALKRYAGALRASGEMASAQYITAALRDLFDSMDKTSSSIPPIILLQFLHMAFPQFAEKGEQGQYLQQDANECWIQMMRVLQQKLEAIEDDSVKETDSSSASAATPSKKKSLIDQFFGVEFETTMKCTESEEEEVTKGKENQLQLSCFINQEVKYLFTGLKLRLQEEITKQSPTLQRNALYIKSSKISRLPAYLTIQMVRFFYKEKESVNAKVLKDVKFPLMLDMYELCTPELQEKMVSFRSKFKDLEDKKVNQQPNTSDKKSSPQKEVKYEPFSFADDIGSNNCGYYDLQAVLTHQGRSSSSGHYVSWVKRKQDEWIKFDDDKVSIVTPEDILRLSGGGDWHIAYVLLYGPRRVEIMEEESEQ

Binder	binding result
USP14-1 mutant (structured_RNA) RNA: GGGUUCACUGCAGACUUGACGAAGCUUGCAGUGAUGUGCUUCUAAAAAACAACCUAAAAAAAUUGCCAAUGGAUCCACAUCUACGAAUUC	no binding
USP14-2 mutant (structured_RNA) RNA: GGGUUCACUGCAGACUUGACGAAGCUUCUGAAAAAAAGUUAGUUUCGCUGGUUUAAAAUCGGUGCGGAAUGGAUCCACAUCUACGAAUUC	no binding
USP14-3 mutant (structured_RNA) RNA: GGGUUCACUGCAGACUUGACGAAGCUUAAAAAAAAGGCUCGUUUGGCCUGCCGAAAAAAGGCCGGGAAAUGGAUCCACAUCUACGAAUUC	no binding
UUUGUCUAGCGCGUAGUGGGGAGAUGUUGUGAUACUGGGG (ssRNA) [control RNA aptamer]	no binding
